Test system: N[C@@H](Cc1ccc(O)cc1)C(=O)O
Assay: ATP:PPi exchange reaction
Type: biochemical, Pseudomonas aeruginosa
Settings: other: other substrate (Tyr or ATP) held at 2 mM; enzyme 0.4 μM; pH 7.5; 37.0 °C

P. aeruginosa TyrRS-S (Pseudomonas aeruginosa PAO1)
Km: 172 µM | kcat: 3.8 s⁻¹

P. aeruginosa TyrRS-Z (Pseudomonas aeruginosa PAO1)
Km: 29 µM | kcat: 3.1 s⁻¹

Source: publication PMC7508885
